Data on one protein can be found in US7507799.

Series [1] has as its system His-tagged cleavage resistant pro-NGF (point mutant, K-R cleavage site at 120,121 mutated to A-A).
Series [2] deals with T1, rat BDNF secreted by adenovirus-infected 293T or endothelial cells (proforms of 30 kDa and 28 kDa).
T1 sequence: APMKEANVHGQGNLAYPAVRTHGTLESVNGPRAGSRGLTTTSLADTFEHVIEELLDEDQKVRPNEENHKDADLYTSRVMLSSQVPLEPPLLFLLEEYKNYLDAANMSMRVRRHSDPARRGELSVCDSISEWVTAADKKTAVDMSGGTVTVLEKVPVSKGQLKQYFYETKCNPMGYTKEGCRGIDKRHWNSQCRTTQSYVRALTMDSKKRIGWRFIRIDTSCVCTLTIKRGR

B1: MMP-7 (enzyme, UniProt P09237 95-267, looked up, species assumed)
Matrilysin: YSLFPNSPKWTSKVVTYRIVSYTRDLPHITVDRLVSKALNMWGKEIPLHFRKVVWGTADIMIGFARGAHGDSYPFDGPGNTLAHAFAPGTGLGGDAHFDEDERWTDGSSLGINFLYAATHELGHSLGMGHSSDPNAVMYPTYGNGDPQNFKLSQDDIKGIQKLYGKRSNSRKK
As to B1, the “proteolytic cleavage, Western blot” value in series [1] is given as “incubation of the pro-NGF with MMP-7 but not MMP-2, -3, or -9 resulted in cleavage of the 30 kD proform of NGF to the 17 kD form”. In addition, in series [2], the “proteolytic cleavage in endothelial media, Western blot” value was “In endothelial media, only plasmin and MMP-7 appeared to cleave the large proform”; the “proteolytic cleavage, Western blot” value is “Treatment of the media with recombinant MMP7 resulted in a reduction in the high molecular weight isoforms of 30 kDa or 28 kDa, and the generation of a novel form of approximately 17 kDa”.
